In the supplement of paper PMC10567573 one finds protein stability index data, which are given here for 36 sequences.

± gives the standard deviation.

This data set is described as follows: protein stability index of a GFP-peptide fusion (GPS, HEK-293T) (PSI 1-6); higher = more stable. The note with it: c terminus: a fixed tail appended.
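Note: 24-mer peptide tiles fused after GFP, lentivirally expressed, FACS-sorted into six equal bins by GFP/DsRed ratio, decoded by Illumina sequencing, PSI is the read-weighted mean bin number.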

For NSESWGWDIGRGKLYHQSKGPGAP [SPSB2], the protein stability index reads like this: (treatment: DMSO) 3.63 ± 0.17; (treatment: MLN4924 1 uM, 8 h) 3.98 ± 0.25.

As to CNECAKLIIQAGIKEVIFMSDKYH [DCTD], the protein stability index is 2.01 ± 0.81 (treatment: DMSO) and 2.43 ± 0.41 (treatment: MLN4924 1 uM, 8 h).

As for VSGKCEPIGCDGVLFSTHTLDKCG [ADAMTSL2], the protein stability index (treatment: DMSO) is 3.41 ± 0.4 and the protein stability index (treatment: MLN4924 1 uM, 8 h) is 3.35 ± 0.29.

LSRRQLCPLTPGPGKALGPAATMA [C2CD2L] returned a protein stability index (treatment: DMSO) of 2.93 ± 0.37 and a protein stability index (treatment: MLN4924 1 uM, 8 h) of 3.13 ± 0.38.

Consider HNSGPPPPPARGRGAPPPPPSRAP [WASL], for which the protein stability index is, setting by setting: (treatment: DMSO) 5.25 ± 0.29; (treatment: MLN4924 1 uM, 8 h) 5.06 ± 0.15.

In turn, ATYLRCQLLLIKALQEKLWNVAAP [INTS4] registered a protein stability index (treatment: DMSO) of 3.16 ± 0.3 and a protein stability index (treatment: MLN4924 1 uM, 8 h) of 2.9 ± 0.39.

For LAPNFRWAIPNRQINDGMGGDGDD [BEX3], the protein stability index was 4.77 ± 0.22 (treatment: DMSO) and 4.6 ± 0.26 (treatment: MLN4924 1 uM, 8 h).

Turning to IHSIPKGTEITIAFDFDYGNCKYK [KMT2E], the protein stability index by setting is: (treatment: DMSO) 2.19 ± 0.31; (treatment: MLN4924 1 uM, 8 h) 1.98 ± 0.32.

Consider AGISPLQQMVASGTGAVVTSLFMT [SLC25A39], for which the protein stability index is, setting by setting: (treatment: DMSO) 2.02 ± 0.57; (treatment: MLN4924 1 uM, 8 h) 2.17 ± 0.5.

In the case of AAQNCRKRKLDTILNLERDVEDLQ [NFE2L1], the protein stability index reads like this: (treatment: DMSO) 4.09 ± 0.44; (treatment: MLN4924 1 uM, 8 h) 4.62 ± 0.27.

For RKKEAKRKISSLSFTLEEEEEGGE [FAM50A], the protein stability index is 5.33 ± 0.41 (treatment: DMSO) and 5.67 ± 0.41 (treatment: MLN4924 1 uM, 8 h).

Turning to NSVTAGDYSRPLHISTFINELDSG [TSN], the protein stability index is, setting by setting: (treatment: DMSO) 3.54 ± 0.19; (treatment: MLN4924 1 uM, 8 h) 3.71 ± 0.18.

For GLSQAPQPLADEGPPGRSIGGAAP [SERTAD1], the protein stability index is, setting by setting: (treatment: DMSO) 5.05 ± 0.31; (treatment: MLN4924 1 uM, 8 h) 5.29 ± 0.21.

AFERQQVENRVVEEAKGLLDKVKD [ZBED1]: the protein stability index reads like this: (treatment: DMSO) 4.97 ± 0.38; (treatment: MLN4924 1 uM, 8 h) 5.61 ± 0.19.

Take NSNGGNLNSPPGPHSAKTEEHTTI [CDC14A]: the protein stability index reads like this: (treatment: DMSO) 5.28 ± 0.17; (treatment: MLN4924 1 uM, 8 h) 5.49 ± 0.2.

With SESRKPTVSIMEPGETRRNSYPRA [TRIM29], the protein stability index was determined as 4.79 ± 0.12 (treatment: DMSO) and 4.43 ± 0.19 (treatment: MLN4924 1 uM, 8 h).

On to GELLATGDKGGRVVIFQREPESKN [PPP2R2C], for which the protein stability index reads like this: (treatment: DMSO) 4.61 ± 0.37; (treatment: MLN4924 1 uM, 8 h) 4.93 ± 0.21.

In turn, YGMQTQNYPKGGLLDSMCPASTPS [ETS2] showed a protein stability index (treatment: DMSO) of 3.79 ± 0.19 and a protein stability index (treatment: MLN4924 1 uM, 8 h) of 3.64 ± 0.18.

For the sequence VAAVLEAVAQTAHLPADSEVTLEA [RSAD1], the protein stability index (treatment: DMSO) stood at 3.8 ± 0.17 and the protein stability index (treatment: MLN4924 1 uM, 8 h) came out at 3.94 ± 0.37.

GGYGGGVSCGFGGGAGSGFGGGYG [KRT13]: the protein stability index was determined as 2.23 ± 0.19 (treatment: DMSO) and 2.38 ± 0.28 (treatment: MLN4924 1 uM, 8 h).

The sequence GRVLLANSTQADEGKTKKGVLEAP [FBXO34] returned a protein stability index (treatment: DMSO) of 5.01 ± 0.17 and a protein stability index (treatment: MLN4924 1 uM, 8 h) of 4.9 ± 0.13.

RQNVPRKVPNHYIAIPEWFLSENA [CPXM2] displayed a protein stability index (treatment: DMSO) of 2.82 ± 0.23 and a protein stability index (treatment: MLN4924 1 uM, 8 h) of 3.05 ± 0.5.

As for KRAFKIKDFANTIPGHGGIMDRFD [CDS2], the protein stability index reads like this: (treatment: DMSO) 2.77 ± 0.27; (treatment: MLN4924 1 uM, 8 h) 2.91 ± 0.42.

QQLHARYVLNLLYETKKHLVQLPN [PPEF2] showed a protein stability index (treatment: DMSO) of 2.66 ± 0.35 and a protein stability index (treatment: MLN4924 1 uM, 8 h) of 2.32 ± 0.22.

For the sequence TRSCSSASSRSQQSSKRSSRSVED [CLK3], the protein stability index was found to be 5.047 ± 0.044 (treatment: DMSO) and 5.02 ± 0.22 (treatment: MLN4924 1 uM, 8 h).

Turning to YDQLKAFLCGRALTSDLYAPMVAG [SLC25A39], the protein stability index was determined as 2.61 ± 0.2 (treatment: DMSO) and 2.04 ± 0.15 (treatment: MLN4924 1 uM, 8 h).

ERAIETLIKNFHQYSVEGGKETLT [S100A14] showed a protein stability index (treatment: DMSO) of 3.53 ± 0.23 and a protein stability index (treatment: MLN4924 1 uM, 8 h) of 3.41 ± 0.22.

Take CDALRTLAEARRLFPGRVSVDLML [RSAD1]: the protein stability index by setting is: (treatment: DMSO) 2.05 ± 0.33; (treatment: MLN4924 1 uM, 8 h) 2.03 ± 0.37.

As for KIRRFNKAKPEPDILEEEKIYAYP [TMEM192], the protein stability index amounted to 3.27 ± 0.35 (treatment: DMSO) and 3.54 ± 0.52 (treatment: MLN4924 1 uM, 8 h).

Take LKASMRELGLLIFFLFIGVILFSS [KCNA1]: the protein stability index was 2.33 ± 0.45 (treatment: DMSO) and 2.31 ± 0.48 (treatment: MLN4924 1 uM, 8 h).

LRFLHENQLTHTDLKPENILFVNS [CLK3] registered a protein stability index (treatment: DMSO) of 2.49 ± 0.23 and a protein stability index (treatment: MLN4924 1 uM, 8 h) of 2.86 ± 0.36.

With SDAEAVSTRWEVIAEDGTKEIESQ [TAF7L], the protein stability index (treatment: DMSO) is 5.42 ± 0.12 and the protein stability index (treatment: MLN4924 1 uM, 8 h) turned out to be 5.48 ± 0.31.

In the case of ICARACNATLTQYQLLATHVPTVW [RHOBTB2], the protein stability index (treatment: DMSO) was determined as 2.67 ± 0.13 and the protein stability index (treatment: MLN4924 1 uM, 8 h) worked out at 2.41 ± 0.4.

Consider ADTRRLNSKPQDLTDAYGPPSNFL [SNX12], for which the protein stability index reads like this: (treatment: DMSO) 3.97 ± 0.22; (treatment: MLN4924 1 uM, 8 h) 3.93 ± 0.068.

As for DHKEPKEEINKNISDFGRQQLLPP [EHMT1], the protein stability index came to 5.1 ± 0.2 (treatment: DMSO) and 5.16 ± 0.21 (treatment: MLN4924 1 uM, 8 h).

With TTARERPCVRPGVSGSPVTQNHAA [FBF1], the protein stability index by setting is: (treatment: DMSO) 4.33 ± 0.23; (treatment: MLN4924 1 uM, 8 h) 4.51 ± 0.3.
